The results in this text go back to the supplement of paper PMC10567573.

B1: NFE2L1 (parent)
chain: TLDGYGIHPKSIDLDNYFTARRLL
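Further: lentivirally expressed fusions sorted by FACS into six bins by GFP to DsRed ratio, PSI derived from sequencing read proportions per bin multiplied by bin number.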

In this series the parent is B1. As to the kind of experiment: protein stability index of a GFP-peptide fusion (GPS, HEK-293T) (PSI 1-6); higher = more stable. Conditions: c terminus: a fixed tail appended.
On to TLDGYHIHPKSIDLDNYFTARRLL [G6H], for which the protein stability index is 1.97.

TLDGYCIHPKSIDLDNYFTARRLL [G6C]: the protein stability index came to 1.48.

On to TLDGYEIHPKSIDLDNYFTARRLL [G6E], for which the protein stability index came to 2.02.

Regarding TLDGYSIHPKSIDLDNYFTARRLL [G6S], the protein stability index came to 1.62.

With TLDGYLIHPKSIDLDNYFTARRLL [G6L], the protein stability index was found to be 1.59.

With TLDGYGIHPKSIDLDNYFTVRRLL [A20V], the protein stability index is 1.35.

With TLDGYGIHPKSIDLDNYFTKRRLL [A20K], the protein stability index was 2.34.

Consider TLDGYGIHPKSIDLDNYFTQRRLL [A20Q], for which the protein stability index was 2.23.

TLDGYGIHPKSIDLDNYFTCRRLL [A20C]: the protein stability index is 1.6.

For TLDGYGIHPKSIDLDNYFTHRRLL [A20H], the protein stability index was 1.66.

For the variant TLDGYGIHPKSIDLDNYFTFRRLL [A20F], the protein stability index amounted to 1.8.

On to TLDGYGIHPKSIDLDNYFTPRRLL [A20P], for which the protein stability index is 1.84.

As to TLDGYGIHPKSIDLDNYFTERRLL [A20E], the protein stability index is 1.87.

In the case of TLDGYGIHPKSIDLDNYFTTRRLL [A20T], the protein stability index came to 1.49.

With TLDGYGIHPKSIDLDNYFTARRLC [L24C], the protein stability index amounted to 1.84.

For TLDGYGIHPKSIDLDNYFTARRLN [L24N], the protein stability index was 2.48.

For TLDGYGIHPKSIDLDNYFTARRLI [L24I], the protein stability index was found to be 1.75.

With TLDGYGIHPKSIDLDNYFTARRLE [L24E], the protein stability index is 2.79.

Regarding TLDGYGIHPKSIDLDNYFTARRLR [L24R], the protein stability index was determined as 3.05.

On to TLDGYGIHPKSIDLDNYFTARRLT [L24T], for which the protein stability index was 2.42.

On to TLDGYGIHPKSIDLDNYFTARRLQ [L24Q], for which the protein stability index worked out at 1.85.

With TLDGYGIHPKSIDLDNYFTARRLD [L24D], the protein stability index is 2.69.

For the variant TLDGYGIHPKSIDLDNYFTARRLY [L24Y], the protein stability index was 1.72.

In the case of TLDGYGIHPKSIDLDNYFTARRLW [L24W], the protein stability index amounted to 2.31.

For TLDGYGIHPKSIDLDNYFTARRLA [L24A], the protein stability index came to 2.26.

With TLDGYGIHPKSILLDNYFTARRLL [D13L], the protein stability index turned out to be 1.73.

In the case of TLDGYGIHPKSIGLDNYFTARRLL [D13G], the protein stability index came to 2.25.

As to TLDGYGIHPKSITLDNYFTARRLL [D13T], the protein stability index came to 2.11.

For the variant TLDGYGIHPKSICLDNYFTARRLL [D13C], the protein stability index was 2.

Regarding TLDGYGIHPKSISLDNYFTARRLL [D13S], the protein stability index was found to be 1.83.

Take TLDGYGIHPKSINLDNYFTARRLL [D13N]: the protein stability index amounted to 2.1.

Regarding TLDGYGIHPKSIELDNYFTARRLL [D13E], the protein stability index was found to be 2.45.

For the variant TLDGYGIHPKSIHLDNYFTARRLL [D13H], the protein stability index amounted to 1.64.

As to TLDGYGIHKKSIDLDNYFTARRLL [P9K], the protein stability index was found to be 2.24.

For TLDGYGIHQKSIDLDNYFTARRLL [P9Q], the protein stability index came out at 2.08.

Take TLDGYGIHTKSIDLDNYFTARRLL [P9T]: the protein stability index was determined as 1.95.

Take TLDGYGIHEKSIDLDNYFTARRLL [P9E]: the protein stability index was found to be 1.97.

Regarding TLDGYGIHPISIDLDNYFTARRLL [K10I], the protein stability index was 1.94.

With TLDGYGIHPFSIDLDNYFTARRLL [K10F], the protein stability index amounted to 1.87.

Take TLDGYGIHPYSIDLDNYFTARRLL [K10Y]: the protein stability index came out at 1.39.

TLDGYGIHPMSIDLDNYFTARRLL [K10M]: the protein stability index amounted to 1.88.

TLDGYGIHPESIDLDNYFTARRLL [K10E]: the protein stability index stood at 1.65.

Take TLDGYGIHPWSIDLDNYFTARRLL [K10W]: the protein stability index is 2.24.

Consider TLDGYGIHPASIDLDNYFTARRLL [K10A], for which the protein stability index stood at 1.79.

For the variant TLDGYGIHPDSIDLDNYFTARRLL [K10D], the protein stability index was 2.37.

As for TLDGYGIHPKSKDLDNYFTARRLL [I12K], the protein stability index came out at 1.85.

On to TLDGYGIHPKSDDLDNYFTARRLL [I12D], for which the protein stability index was 3.05.

TLDGYGIHPKSFDLDNYFTARRLL [I12F]: the protein stability index was 2.02.

As for TLDGYGIHPKSNDLDNYFTARRLL [I12N], the protein stability index was found to be 1.93.

On to TLDGYGIHPKSADLDNYFTARRLL [I12A], for which the protein stability index amounted to 1.89.

For TLDGYGIHPKSSDLDNYFTARRLL [I12S], the protein stability index was determined as 1.87.

Consider TLDGYGIHPKSHDLDNYFTARRLL [I12H], for which the protein stability index came out at 2.24.

TLDGYGIHPKSTDLDNYFTARRLL [I12T]: the protein stability index was 1.99.

Consider TLDGYGIHPKSIDLDNYHTARRLL [F18H], for which the protein stability index came to 2.34.

In the case of TLDGYGIHPKSIDLDNYSTARRLL [F18S], the protein stability index was 2.16.

In the case of TLDGYGIHPKSIDLDNYGTARRLL [F18G], the protein stability index was 2.67.

As to TLDGYGIHPKSIDLDNYETARRLL [F18E], the protein stability index amounted to 2.71.

Regarding TLDGYGIHPKSIDLDNYRTARRLL [F18R], the protein stability index was 2.31.

In the case of TLDGYGIHPKSIDLDNYVTARRLL [F18V], the protein stability index was determined as 3.05.

As to TLDGYGIHPKSIDLDNYWTARRLL [F18W], the protein stability index is 1.7.

Regarding TLDGYGIHPKSIDLDNYDTARRLL [F18D], the protein stability index was found to be 3.26.

With TLDGYGIHPKSIDLDNYMTARRLL [F18M], the protein stability index is 2.08.

For TLDGYGIHPKSIDLDVYFTARRLL [N16V], the protein stability index was 2.24.

Regarding TLDGYGIHPKSIDLDTYFTARRLL [N16T], the protein stability index was 1.76.

On to TLDGYGIHPKSIDLDWYFTARRLL [N16W], for which the protein stability index worked out at 1.96.

Turning to TLDGYGIHPKSIDLDIYFTARRLL [N16I], the protein stability index was 3.1.

TLDGYGIHPKSIDLDPYFTARRLL [N16P]: the protein stability index was determined as 1.98.

With TLDGYGIHPKSIDLDCYFTARRLL [N16C], the protein stability index is 2.51.

With TLDGYGIHPKSIDLDHYFTARRLL [N16H], the protein stability index is 1.9.

Consider TLDGYGIHPKSIDLDNYFTADRLL [R21D], for which the protein stability index is 2.67.

TLDGYGIHPKSIDLDNYFTAERLL [R21E]: the protein stability index was 2.12.

As to TLDGYGIHPKSIDLDNYFTAQRLL [R21Q], the protein stability index came to 1.71.

As to TLDGYGIHPKSIDLDNYFTALRLL [R21L], the protein stability index turned out to be 1.9.

For the variant TLDGYGIHPKSIDLDNYFTAYRLL [R21Y], the protein stability index came to 3.26.

TLDGYGIHPKSIDLDNYFTAIRLL [R21I]: the protein stability index worked out at 1.6.

Regarding TLDGYGIHPKSIDLDNYFTAVRLL [R21V], the protein stability index turned out to be 2.72.

As to TLDGYGIHPKSIDLDNYFTAWRLL [R21W], the protein stability index stood at 1.08.

Consider TLDGYGIHPKSIDLDNYFTAGRLL [R21G], for which the protein stability index was found to be 2.4.

In the case of TLDGYGIHPKSIDLDNYFTASRLL [R21S], the protein stability index stood at 1.69.

For the variant TLDGYGIHPKSIDLDNYFTAFRLL [R21F], the protein stability index turned out to be 1.77.

As to TLDGYGIHPKSIDLDNYFTAHRLL [R21H], the protein stability index was 2.8.

For the variant TLDGYGIHPKSIDMDNYFTARRLL [L14M], the protein stability index is 2.02.

As to TLDGYGIHPKSIDCDNYFTARRLL [L14C], the protein stability index turned out to be 2.39.

As to TLDGYGIHPKSIDWDNYFTARRLL [L14W], the protein stability index is 1.95.

As to TLDGYGIHPKSIDIDNYFTARRLL [L14I], the protein stability index is 2.12.

Turning to TLDGYGIHPKSIDHDNYFTARRLL [L14H], the protein stability index was 2.01.

Consider TLDGYGIHPKSIDNDNYFTARRLL [L14N], for which the protein stability index turned out to be 2.17.

As for TLDGYGIHPKSIDLDNRFTARRLL [Y17R], the protein stability index was 2.58.

On to TLDGYGIHPKSIDLDNTFTARRLL [Y17T], for which the protein stability index was determined as 2.24.

For the variant TLDGYGIHPKSIDLDNDFTARRLL [Y17D], the protein stability index is 2.64.

With TLDGYGIHPKSIDLDNHFTARRLL [Y17H], the protein stability index is 2.56.

Consider TLDGYGIHPKSIDLDNLFTARRLL [Y17L], for which the protein stability index came to 2.06.

For TLDGYGIHPKSIDLDNAFTARRLL [Y17A], the protein stability index came to 1.88.

For the variant TLDGYGIHPKSIDLDNKFTARRLL [Y17K], the protein stability index worked out at 2.57.
